What was measured:
[1] = target: T1, huCOX-2 (human cyclooxygenase-2) (Homo sapiens, UniProt P35354, N580A)
T1 sequence (P35354 18-604 N580A): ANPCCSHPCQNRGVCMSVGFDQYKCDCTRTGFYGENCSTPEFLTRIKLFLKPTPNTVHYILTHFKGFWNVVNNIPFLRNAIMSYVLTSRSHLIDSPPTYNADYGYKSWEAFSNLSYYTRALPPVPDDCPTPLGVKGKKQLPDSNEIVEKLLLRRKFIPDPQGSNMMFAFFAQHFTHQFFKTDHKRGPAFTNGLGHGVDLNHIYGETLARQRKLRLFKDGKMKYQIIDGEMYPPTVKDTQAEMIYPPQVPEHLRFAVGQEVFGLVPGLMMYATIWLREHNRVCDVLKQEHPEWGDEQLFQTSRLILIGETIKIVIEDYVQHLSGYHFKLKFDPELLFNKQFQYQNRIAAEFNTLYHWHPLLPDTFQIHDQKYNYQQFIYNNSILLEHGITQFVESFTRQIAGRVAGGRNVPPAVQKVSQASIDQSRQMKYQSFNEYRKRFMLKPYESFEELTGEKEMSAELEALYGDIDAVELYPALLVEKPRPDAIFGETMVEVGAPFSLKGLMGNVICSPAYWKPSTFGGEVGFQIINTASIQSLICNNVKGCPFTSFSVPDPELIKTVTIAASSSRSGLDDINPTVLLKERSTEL

[2] = target: T1, huCOX-2 (human cyclooxygenase-2); conditions: oxygen electrode
purified protein [3] = substrate: CC/C=C\C/C=C\C/C=C\C/C=C\C/C=C\CCCC(=O)O; assay: purified protein; conditions: heme (Fe3+-protoporphyrin IX)
purified protein [4] = substrate: CCCCC/C=C\C/C=C\C/C=C\C/C=C\CCCC(=O)O; assay: purified protein; conditions: heme (Fe3+-protoporphyrin IX)
purified protein [5] = substrate: CCCCC/C=C\C/C=C\C/C=C\C/C=C\CCCC(=O)OCC(O)CO; assay: purified protein; conditions: heme (Fe3+-protoporphyrin IX)
SEC = target: the molecule itself; assay: SEC

In the case of Cc1ccc(Cl)c(Nc2ccccc2C(=O)O)c1Cl [Meclo, meclofenamic acid], the “oxygen electrode, 50 μM inhibitor, 30 min pre-incubation” value [1] is reported as “Flurbiprofen, indomethacin, meclofenamic acid, and celecoxib caused near complete inhibition of cyclooxygenase activity”.

For COc1ccc2cc([C@H](C)C(=O)O)ccc2c1 [Napx, naproxen], the “% loss of activity” value [2] was 60-70 % loss of activity.

B1: FLAG N580A murine (mu) COX-2 (enzyme, UniProt Q05769 18-604, looked up)
chain: ANPCCSNPCQNRGECMSTGFDQYKCDCTRTGFYGENCTTPEFLTRIKLLLKPTPNTVHYILTHFKGVWNIVNNIPFLRSLIMKYVLTSRSYLIDSPPTYNVHYGYKSWEAFSNLSYYTRALPPVADDCPTPMGVKGNKELPDSKEVLEKVLLRREFIPDPQGSNMMFAFFAQHFTHQFFKTDHKRGPGFTRGLGHGVDLNHIYGETLDRQHKLRLFKDGKLKYQVIGGEVYPPTVKDTQVEMIYPPHIPENLQFAVGQEVFGLVPGLMMYATIWLREHNRVCDILKQEHPEWGDEQLFQTSRLILIGETIKIVIEDYVQHLSGYHFKLKFDPELLFNQQFQYQNRIASEFNTLYHWHPLLPDTFNIEDQEYSFKQFLYNNSILLEHGLTQFVESFTRQIAGRVAGGRNVPIAVQAVAKASIDQSREMKYQSLNEYRKRFSLKPYTSFEELTGEKEMAAELKALYSDIDVMELYPALLVEKPRPDAIFGETMVELGAPFSLKGLMGNPICSPQYWKPSTFGGEVGFKIINTASIQSLICNNVKGCPFTSFNVQDPQPTKTATIAASASHSRLDDINPTVLIKRRSTEL
B1 was tested, and the Km (purified protein [3]) was 1.9 µM, the kcat (purified protein [3]) was 6.3 s⁻¹ and the kcat/Km (purified protein [3]) was 3.3e+06 M⁻¹ s⁻¹. It also gave a Km (purified protein [4]) of 6.8 µM, a kcat (purified protein [4]) of 36.1 s⁻¹ and a kcat/Km (purified protein [4]) of 5.3e+06 M⁻¹ s⁻¹. It also gave a Km (purified protein [5]) of 6.8 µM, a kcat (purified protein [5]) of 30.9 ± 0.7 s⁻¹ and a kcat/Km (purified protein [5]) of 4.5e+06 M⁻¹ s⁻¹. For the same molecule, the “stoichiometry N” value (SEC) was 2.

From publication PMC3967765 (Archives of biochemistry and biophysics, 2014)
